Results on one molecule are retold here after publication PMC9478674 (Proceedings of the National Academy of Sciences of the …, 2022).

In this test the target is T1, KaiC S431E;T432A (KaiC-EA) (UniProt Q79PF4 1-519, S431E | T432A).
T1 sequence (looked up): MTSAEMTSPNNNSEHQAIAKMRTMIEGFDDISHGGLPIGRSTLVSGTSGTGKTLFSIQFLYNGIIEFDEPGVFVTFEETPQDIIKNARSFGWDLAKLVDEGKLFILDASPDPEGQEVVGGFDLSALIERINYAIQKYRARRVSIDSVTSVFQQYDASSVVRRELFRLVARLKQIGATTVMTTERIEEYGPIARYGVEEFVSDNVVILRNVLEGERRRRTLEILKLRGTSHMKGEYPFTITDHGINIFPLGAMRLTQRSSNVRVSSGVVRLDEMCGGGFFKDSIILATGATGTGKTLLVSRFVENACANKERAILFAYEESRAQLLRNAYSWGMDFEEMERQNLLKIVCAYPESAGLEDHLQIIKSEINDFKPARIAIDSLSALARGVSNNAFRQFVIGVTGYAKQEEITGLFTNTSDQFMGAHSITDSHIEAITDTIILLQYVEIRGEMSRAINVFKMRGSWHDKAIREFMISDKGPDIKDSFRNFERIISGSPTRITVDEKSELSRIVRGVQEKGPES
Put plainly: co-IP.

B1: wildtype KaiB-FLAG (natural protein, UniProt Q79PF5 1-102, looked up)
chain: MSPRKTYILKLYVAGNTPNSVRALKTLKNILEVEFQGVYALKVIDVLKNPQLAEEDKILATPTLAKVLPLPVRRIIGDLSDREKVLIGLDLLYGELQDSDDF
As to B1, the binding result is reported as “binds”.
